Source: article PMC2952847

Experiments:
RHAU(ΔGly–RSM)-FLAG = biological target: T1, RHAU(ΔGly–RSM)-FLAG (Homo sapiens, UniProt Q9H2U1 105-1008); assay: EMSA
T1 sequence: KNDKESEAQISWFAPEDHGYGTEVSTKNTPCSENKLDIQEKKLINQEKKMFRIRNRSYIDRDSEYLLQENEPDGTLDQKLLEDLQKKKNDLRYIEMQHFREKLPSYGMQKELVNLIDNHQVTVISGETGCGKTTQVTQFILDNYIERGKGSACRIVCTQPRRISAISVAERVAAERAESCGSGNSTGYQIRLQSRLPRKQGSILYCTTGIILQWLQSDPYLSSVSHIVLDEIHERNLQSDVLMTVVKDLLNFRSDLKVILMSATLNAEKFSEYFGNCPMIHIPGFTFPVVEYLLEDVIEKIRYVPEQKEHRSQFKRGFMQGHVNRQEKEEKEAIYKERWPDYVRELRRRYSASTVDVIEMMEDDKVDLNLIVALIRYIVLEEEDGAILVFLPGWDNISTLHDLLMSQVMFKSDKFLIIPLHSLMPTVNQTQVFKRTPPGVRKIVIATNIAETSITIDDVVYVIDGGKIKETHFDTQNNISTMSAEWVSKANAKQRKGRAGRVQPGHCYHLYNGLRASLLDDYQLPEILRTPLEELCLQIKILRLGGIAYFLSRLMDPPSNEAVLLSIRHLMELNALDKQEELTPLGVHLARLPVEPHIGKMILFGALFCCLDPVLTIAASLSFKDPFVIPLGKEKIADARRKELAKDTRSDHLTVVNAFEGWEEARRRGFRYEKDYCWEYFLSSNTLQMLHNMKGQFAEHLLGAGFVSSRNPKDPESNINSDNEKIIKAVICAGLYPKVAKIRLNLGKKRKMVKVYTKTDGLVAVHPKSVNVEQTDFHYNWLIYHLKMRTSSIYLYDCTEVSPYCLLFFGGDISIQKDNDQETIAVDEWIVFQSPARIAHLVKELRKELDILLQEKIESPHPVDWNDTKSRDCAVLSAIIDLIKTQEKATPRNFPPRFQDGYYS

GST-RHAU(WT) = biological target: T2, GST-RHAU(WT) (Homo sapiens, UniProt Q9H2U1 1-1008); assay: EMSA
T2 sequence: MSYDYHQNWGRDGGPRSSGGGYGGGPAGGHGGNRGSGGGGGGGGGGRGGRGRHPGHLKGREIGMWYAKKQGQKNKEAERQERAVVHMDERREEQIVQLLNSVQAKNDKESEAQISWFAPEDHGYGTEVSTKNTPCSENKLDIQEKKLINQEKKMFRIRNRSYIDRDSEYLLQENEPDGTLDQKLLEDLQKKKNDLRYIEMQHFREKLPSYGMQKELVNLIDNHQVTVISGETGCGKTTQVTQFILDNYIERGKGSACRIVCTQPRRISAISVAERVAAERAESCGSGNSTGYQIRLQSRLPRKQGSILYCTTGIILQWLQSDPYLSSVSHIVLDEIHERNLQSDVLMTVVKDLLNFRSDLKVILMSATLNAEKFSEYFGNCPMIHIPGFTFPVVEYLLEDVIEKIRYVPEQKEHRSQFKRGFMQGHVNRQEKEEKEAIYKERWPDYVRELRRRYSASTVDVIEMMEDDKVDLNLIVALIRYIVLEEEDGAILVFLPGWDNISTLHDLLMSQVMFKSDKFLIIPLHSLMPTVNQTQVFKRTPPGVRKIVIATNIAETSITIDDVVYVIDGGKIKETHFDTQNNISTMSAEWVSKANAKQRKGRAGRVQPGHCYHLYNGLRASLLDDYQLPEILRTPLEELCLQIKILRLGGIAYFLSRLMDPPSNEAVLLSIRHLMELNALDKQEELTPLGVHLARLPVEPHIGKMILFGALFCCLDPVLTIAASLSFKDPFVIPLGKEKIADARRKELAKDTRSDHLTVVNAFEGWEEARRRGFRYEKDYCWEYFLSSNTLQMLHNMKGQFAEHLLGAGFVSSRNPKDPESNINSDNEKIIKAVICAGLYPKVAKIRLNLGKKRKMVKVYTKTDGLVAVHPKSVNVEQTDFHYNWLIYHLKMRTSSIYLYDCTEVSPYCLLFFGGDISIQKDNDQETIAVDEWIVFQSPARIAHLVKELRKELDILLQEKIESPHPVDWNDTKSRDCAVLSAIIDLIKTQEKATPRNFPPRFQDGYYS

With AAAAAAAAAAAAAAAGGGGGAAAAAAAAAAAAAAA (structured_RNA) [tetramolecular G4-rAGA] the binding result (RHAU(ΔGly–RSM)-FLAG) was “no binding” and the Kd (GST-RHAU(WT)) was 14 nM.
